Columns and labels:
COS cells = conditions: 400 μM peptide; […] ephrin-B1 Fc
Procedure: Upon treatment with 1.5 μg/ml ephrin-B1 Fc, COS cells retract at the periphery, leaving behind spike-like protrusions. […] COS cells were plated onto glass coverslips and sixteen hours later were starved for three hours in DME with 0.5% fetal calf serum. The cells were then incubated for 20 min with 400 μM SNEW or control peptide in PBS, or an equal volume of PBS as a control, and then either left untreated or stimulated for 10 min with 1.5 μg/ml ephrinB1-Fc (R&D Systems, Inc.). […] Control peptide: RTVA.

EphB receptors = assay: Peptide pull-down of endogenous EphB receptors from lysates; type: binding; conditions: peptide on streptavidin beads; mouse brain or cultured cell lysates
Procedure: The ability of the peptides to bind in a stable manner, which is important for both targeting and competitive inhibition, was tested in pull-down experiments. For peptide pull-down experiments, cells in 60 cm plates at 70% confluency or adult mouse brain tissue were solubilized in pull-down buffer (50 mM HEPES pH 7.5, 150 mM NaCl, 10% glycerol, 1% Triton-X100, 5 mM KCl and 1 mM EDTA). Three μg of biotinylated peptide were incubated for 45-90 min with 5 μl streptavidin agarose beads (Sigma), unbound peptide was washed away, and the beads were incubated with the cell lysates for 45-90 min. Proteins bound to the beads were separated by SDS-polyacrylamide gel electrophoresis and probed by immunoblotting with EphB1, EphB2, or EphB4 antibodies. The EphB1 antibody (Santa Cruz) was detected with a secondary anti-goat IgG peroxidase-conjugated antibody (BioRad Laboratories). The EphB2 and EphB4 antibodies were affinity-purified polyclonal antibodies to GST fusion proteins containing approximately 100 amino acids from the carboxy-terminal tails of the EphB2 or EphB4 receptors (Noren, N. K. et al. 2004 PNAS USA 101:5583-5588; Holash, J. A. & Pasquale, E. B. 1995 Devel Biol 172:683-693) and were detected with a secondary anti-rabbit IgG peroxidase-conjugated antibody (Amersham Biosciences). […]

EphB4 [1] = target: T1, EphB4 (Homo sapiens, UniProt P54760); assay: Peptide competition of phage binding to EphB4 ectodomain; conditions: concentration-dependent
T1 construct: panned on the ectodomains of EphB1, EphB2, or EphB4 fused to human Fc
T1 sequence (P54760 16-539 limits assumed): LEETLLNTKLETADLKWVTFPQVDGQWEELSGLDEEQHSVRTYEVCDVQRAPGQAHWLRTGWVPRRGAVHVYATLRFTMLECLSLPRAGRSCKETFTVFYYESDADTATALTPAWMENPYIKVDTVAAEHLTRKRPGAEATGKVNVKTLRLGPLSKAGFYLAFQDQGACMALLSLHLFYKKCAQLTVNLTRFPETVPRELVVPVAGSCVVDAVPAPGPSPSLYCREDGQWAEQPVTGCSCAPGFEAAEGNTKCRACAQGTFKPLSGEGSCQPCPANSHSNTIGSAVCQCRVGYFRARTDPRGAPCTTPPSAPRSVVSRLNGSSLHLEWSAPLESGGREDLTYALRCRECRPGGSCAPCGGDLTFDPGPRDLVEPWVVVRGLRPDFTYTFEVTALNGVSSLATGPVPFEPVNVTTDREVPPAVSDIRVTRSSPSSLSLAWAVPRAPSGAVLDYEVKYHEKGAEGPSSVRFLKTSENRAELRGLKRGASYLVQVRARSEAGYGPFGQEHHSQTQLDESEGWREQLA
Procedure: To measure peptide competition of phage binding to EphB receptors, Ni-NTA wells coated with Eph ectodomain Fc were incubated for 30 min at room temperature with various peptide concentrations in binding buffer (100 μl/well). Concentrated stocks of phage clones diluted between 1:500 and 1:10,000 in binding buffer were then added to the wells for a 1 hr at room temperature. Wells were washed and bound phage were detected using the anti-M13 antibody. A biotinylated control peptide with sequence unrelated to the sequences of the Eph-binding peptides ([…], SEQ ID NO: 40) was used as a negative control in some of the experiments, as indicated in the figure legends.
[…]. The SNEW peptide at 25 μM inhibited EphB2 binding of most phage clones isolated by panning on EphB2 (FIGS. 2E and G). The only exceptions were the IHWP, DHRWV and WHWT clones. However, binding of these clones was inhibited by 50 μM SNEW peptide, particularly when the phage concentration was halved. […] Bound phage were detected using anti-M13 phage antibody coupled to HRP and phage binding in the presence of peptide was normalized to phage binding in the absence of peptide. Error bars indicate standard deviation from duplicate measurements, and were calculated taking into account propagation of errors.

EphB4 [2] = target: T2, EphB4 (Homo sapiens, UniProt P54760); assay: Peptide pull-down of EphB4 from MCF7 or transfected 293T cells; type: binding
T2 construct: MCF-7 human breast cancer cells, which endogenously express EphB4; endogenous in cells; host or cells: MCF7
T2 sequence (P54760 16-987): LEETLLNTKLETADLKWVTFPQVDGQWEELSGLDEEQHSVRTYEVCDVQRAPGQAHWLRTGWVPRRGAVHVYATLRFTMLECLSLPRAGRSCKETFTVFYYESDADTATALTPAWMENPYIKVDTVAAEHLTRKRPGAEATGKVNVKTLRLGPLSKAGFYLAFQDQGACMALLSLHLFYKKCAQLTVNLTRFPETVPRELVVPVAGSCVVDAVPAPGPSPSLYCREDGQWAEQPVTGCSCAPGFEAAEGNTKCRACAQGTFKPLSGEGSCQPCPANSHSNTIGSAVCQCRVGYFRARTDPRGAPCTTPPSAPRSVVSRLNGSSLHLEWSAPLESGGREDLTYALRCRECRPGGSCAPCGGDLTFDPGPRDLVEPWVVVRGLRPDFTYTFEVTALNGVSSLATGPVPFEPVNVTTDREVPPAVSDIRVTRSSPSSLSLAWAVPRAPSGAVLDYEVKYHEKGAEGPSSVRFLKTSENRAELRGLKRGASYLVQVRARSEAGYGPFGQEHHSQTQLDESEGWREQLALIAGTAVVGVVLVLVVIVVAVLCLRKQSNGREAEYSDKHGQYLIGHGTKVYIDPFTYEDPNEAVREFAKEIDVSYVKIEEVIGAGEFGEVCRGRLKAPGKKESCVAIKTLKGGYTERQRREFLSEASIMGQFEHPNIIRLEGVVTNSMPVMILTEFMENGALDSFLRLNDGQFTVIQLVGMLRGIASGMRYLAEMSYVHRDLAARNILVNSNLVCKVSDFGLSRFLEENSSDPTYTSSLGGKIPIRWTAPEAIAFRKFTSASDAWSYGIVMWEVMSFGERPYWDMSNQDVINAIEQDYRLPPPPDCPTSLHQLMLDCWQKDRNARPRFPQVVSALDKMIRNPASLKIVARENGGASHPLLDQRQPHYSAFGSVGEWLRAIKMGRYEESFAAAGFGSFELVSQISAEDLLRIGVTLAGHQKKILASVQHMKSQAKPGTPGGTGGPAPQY
Procedure: The ability of the peptides to bind in a stable manner, which is important for both targeting and competitive inhibition, was tested in pull-down experiments. For peptide pull-down experiments, cells in 60 cm plates at 70% confluency or adult mouse brain tissue were solubilized in pull-down buffer (50 mM HEPES pH 7.5, 150 mM NaCl, 10% glycerol, 1% Triton-X100, 5 mM KCl and 1 mM EDTA). Three μg of biotinylated peptide were incubated for 45-90 min with 5 μl streptavidin agarose beads (Sigma), unbound peptide was washed away, and the beads were incubated with the cell lysates for 45-90 min. Proteins bound to the beads were separated by SDS-polyacrylamide gel electrophoresis and probed by immunoblotting with EphB1, EphB2, or EphB4 antibodies. The EphB1 antibody (Santa Cruz) was detected with a secondary anti-goat IgG peroxidase-conjugated antibody (BioRad Laboratories). The EphB2 and EphB4 antibodies were affinity-purified polyclonal antibodies to GST fusion proteins containing approximately 100 amino acids from the carboxy-terminal tails of the EphB2 or EphB4 receptors (Noren, N. K. et al. 2004 PNAS USA 101:5583-5588; Holash, J. A. & Pasquale, E. B. 1995 Devel Biol 172:683-693) and were detected with a secondary anti-rabbit IgG peroxidase-conjugated antibody (Amersham Biosciences).
Endogenous EphB receptors were isolated from lysates of mouse brain or cultured cells using the EWLS, SNEW, and TNYL peptides immobilized on streptavidin beads (FIGS. 5B, F, G and H). […] RTVA was used as a control peptide for the EphB4 pull downs. The NPVI peptide could isolate EphB4 from transfected cells but not endogenous EphB4 from MCF7 cells, which is present at lower levels (FIGS. 5B, F, G and H). […] EphB receptors were not detected bound to the beads coated with the other peptides.

EphA3 = target: T3, EphA3 (Homo sapiens, UniProt P29320); conditions: read-out: KD for monovalent EphA3-ephrin-A5 interaction; cited from earlier work
T3 sequence (P29320 21-983): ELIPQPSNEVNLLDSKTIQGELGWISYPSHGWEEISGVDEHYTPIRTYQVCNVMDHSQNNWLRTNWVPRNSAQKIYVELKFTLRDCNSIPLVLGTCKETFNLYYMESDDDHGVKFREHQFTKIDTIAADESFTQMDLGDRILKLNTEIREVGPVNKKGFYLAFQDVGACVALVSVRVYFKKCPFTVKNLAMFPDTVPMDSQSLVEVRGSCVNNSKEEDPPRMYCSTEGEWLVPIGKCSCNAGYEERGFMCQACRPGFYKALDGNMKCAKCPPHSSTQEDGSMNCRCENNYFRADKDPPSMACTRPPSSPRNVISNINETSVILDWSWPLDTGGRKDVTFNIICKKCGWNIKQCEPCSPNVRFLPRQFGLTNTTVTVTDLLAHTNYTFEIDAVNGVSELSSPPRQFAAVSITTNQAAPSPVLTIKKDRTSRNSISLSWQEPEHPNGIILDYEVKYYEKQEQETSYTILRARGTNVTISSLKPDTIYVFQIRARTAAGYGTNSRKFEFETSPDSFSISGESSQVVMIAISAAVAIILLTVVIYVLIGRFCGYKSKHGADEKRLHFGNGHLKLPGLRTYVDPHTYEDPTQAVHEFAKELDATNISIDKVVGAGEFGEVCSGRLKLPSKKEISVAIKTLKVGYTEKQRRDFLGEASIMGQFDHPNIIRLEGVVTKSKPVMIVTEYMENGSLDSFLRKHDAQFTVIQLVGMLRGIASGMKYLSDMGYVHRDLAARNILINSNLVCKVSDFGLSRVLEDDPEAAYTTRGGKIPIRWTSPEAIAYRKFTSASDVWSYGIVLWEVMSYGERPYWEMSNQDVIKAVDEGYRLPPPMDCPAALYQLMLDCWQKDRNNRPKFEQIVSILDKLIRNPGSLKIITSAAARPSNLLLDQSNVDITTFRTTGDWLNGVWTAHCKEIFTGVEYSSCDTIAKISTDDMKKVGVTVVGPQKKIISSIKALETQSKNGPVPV

EphB2 = target: T4, EphB2 (Homo sapiens, UniProt P29323); conditions: read-out: KD for monovalent EphB2-ephrin-B2 interaction; cited from earlier work
T4 sequence (P29323 19-1055): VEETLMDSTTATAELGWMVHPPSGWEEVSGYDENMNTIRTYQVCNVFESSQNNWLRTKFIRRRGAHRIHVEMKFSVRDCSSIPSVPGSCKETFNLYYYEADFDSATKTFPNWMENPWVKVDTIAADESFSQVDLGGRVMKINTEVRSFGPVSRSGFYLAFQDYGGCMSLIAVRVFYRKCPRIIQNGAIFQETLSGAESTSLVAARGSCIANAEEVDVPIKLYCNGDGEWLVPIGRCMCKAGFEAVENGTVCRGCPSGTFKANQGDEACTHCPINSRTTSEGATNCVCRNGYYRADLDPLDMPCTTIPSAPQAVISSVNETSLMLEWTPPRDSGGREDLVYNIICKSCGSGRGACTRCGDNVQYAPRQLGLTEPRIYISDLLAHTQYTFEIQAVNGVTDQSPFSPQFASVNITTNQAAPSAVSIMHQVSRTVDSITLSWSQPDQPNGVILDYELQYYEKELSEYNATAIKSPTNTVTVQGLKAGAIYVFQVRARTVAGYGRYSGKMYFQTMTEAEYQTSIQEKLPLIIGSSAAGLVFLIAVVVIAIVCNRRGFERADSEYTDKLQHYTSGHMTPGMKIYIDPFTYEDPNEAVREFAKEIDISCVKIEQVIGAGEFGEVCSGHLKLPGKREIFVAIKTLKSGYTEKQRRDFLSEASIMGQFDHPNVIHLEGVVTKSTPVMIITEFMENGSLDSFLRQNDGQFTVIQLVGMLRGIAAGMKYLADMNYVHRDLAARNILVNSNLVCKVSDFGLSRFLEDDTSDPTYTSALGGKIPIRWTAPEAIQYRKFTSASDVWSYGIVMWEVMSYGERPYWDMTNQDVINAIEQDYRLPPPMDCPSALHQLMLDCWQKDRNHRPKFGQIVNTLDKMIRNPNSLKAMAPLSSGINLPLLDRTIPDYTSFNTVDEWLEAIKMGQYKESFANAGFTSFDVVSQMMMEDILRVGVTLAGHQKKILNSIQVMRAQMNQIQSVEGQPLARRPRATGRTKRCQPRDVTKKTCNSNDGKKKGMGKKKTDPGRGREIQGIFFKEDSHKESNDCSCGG

Molecule: CC[C@H](C)[C@H](NC(=O)[C@H](Cc1c[nH]c2ccccc12)NC(=O)[C@H](CCC(=O)O)NC(=O)[C@H](CC(N)=O)NC(=O)[C@@H](N)CO)C(=O)N[C@@H](CCC(N)=O)C(=O)N1CCC[C@H]1C(=O)N[C@@H](CCCNC(=N)N)C(=O)N[C@@H](CC(C)C)C(=O)N1CCC[C@H]1C(=O)N[C@@H](CCC(N)=O)C(=O)N[C@@H](Cc1c[nH]cn1)C(=O)O [SEQ ID NO 18]
- Inhibition of COS cell retraction phenotype (COS cells): inhibited the COS cell retraction phenotype
- Stable binding of EphB receptors in pull-down (EphB receptors): stably bind EphB receptors

Molecule: SEQ ID NO 20: 12-mer from EphB4 panning; printed DAL[image]D[image]L[image]FRPW (DALNDWLLFRPW)
- Inhibition of DALN phage binding to immobilized EphB4 ectodomain (EphB4 [1]): inhibited binding of DALN phage
- Pull-down of EphB4, peptides used alone or together (EphB4 [2]): ineffective

B1: ephrin-A5: ephrin ligand; monovalent interaction with EphA3, literature KD (protein, UniProt P52803 21-203, looked up)
Ephrin-A5: QDPGSKAVADRYAVYWNSSNPRFQRGDYHIDVCINDYLDVFCPHYEDSVPEDKTERYVLYMVNFDGYSACDHTSKGFKRWECNRPHSPNGPLKFSEKFQLFTPFSLGFEFRPGREYFYISSAIPDNGRRSCLKLKVFVRPTNSCMKTIGVHDRVFDVNDKVENSLEPADDTVHESAEPSRGEN
- Kd (EphA3): 10 to 12 nM

B2: ephrin-B2: ephrin ligand; monovalent interaction with EphB2, literature KD (protein, UniProt P52799 28-333, looked up)
Ephrin-B2: IVLEPIYWNSSNSKFLPGQGLVLYPQIGDKLDIICPKVDSKTVGQYEYYKVYMVDKDQADRCTIKKENTPLLNCAKPDQDIKFTIKFQEFSPNLWGLEFQKNKDYYIISTSNGSLEGLDNQEGGVCQTRAMKILMKVGQDASSAGSTRNKDPTRRPELEAGTNGRSSTTSPFVKPNPGSSTDGNSAGHSGNNILGSEVALFAGIASGCIIFIVIIITLVVLLLKYRRRHRKHSPQHTTTLSLSTLATPKRSGNNNGSEPSDIIIPLRTADSVFCPHYEKVSGDYGHPVYIVQEMPPQSPANIYYKV
- Kd (EphB2): 16 nM

Reference: US7999069B2, “EphB receptor-binding peptides” (Sanford-Burnham Medical Research Institute, priority 2005, dated 2011)
